Data reported in patent US20110165161A1, “ANTI-EPCAM ANTIBODIES THAT INDUCE APOPTOSIS OF CANCER CELLS AND METHODS USING SAME” (priority 2009, published 2011).
Changes are numbered by the printed parent chain. Blank lines part the entries; values can stand above or below the molecule they belong to.

Legend:
[1] = system: COLO 205 colon cancer cells; experiment: Cytotoxicity of anti-EpCAM antibodies in combination with oxaliplatin in COLO 205; format: cell-based, human; details: No mAb added, 24 hr
Description: Oxaliplatin, combined with infusional administration of 2 other chemotherapy drugs, 5-fluorouracil/leucovorin (5-FU/LV), is now considered as one of the as first-line treatments for people with advanced carcinoma of the colon or rectum (André et al. (2004) N Engl J Med 350(23):2343-2351). To test the cytotoxicity of anti-EpCAM antibodies in the presence of oxaliplatin, 1×10^5 COLO 205 cells were seeded to each well of a 96-well plate, and then 0.03, 0.3 and 3 μg/ml of anti-EpCAM or control (9E10) mAbs in combination with oxaliplatin at concentration of 0, 0.01, 0.1, and 1 μg/ml diluted in the medium were added into the cells. After a 24-hr incubation at 37° C., the cells were stained with 0.3 μl of FITC-conjugated Annexin V (Strong Biotech Corp. Cat. No. AVK250) in 50 μl Annexin V binding buffer (Strong Biotech Corp. Cat. No. AVK250) at RT for 20 min. After wash, the cells were then stained with 0.3 μl of propidium iodide in 200 μl Annexin V binding buffer. Annexin V and Propidium Iodide were used as a joint indicator for measuring cell death. The data were acquired with BD FACSCalibur based on an acquisition of 3,000-5,000 cells and analyzed with the Cell Quest software. The combined percentages of the Annexin V+/PI+, Annexin V+/PI− and Annexin V−/PI+populations were considered as dead cells.

[2] = biological target: T1, EGFI-Cr1 wild type (first EGF-like repeat of human EpCAM fused to the constant region of human immunoglobulin … (human, UniProt P01857-1 99-330 = IgG part)); experiment: direct ELISA, coated EGFI-Cr1 fusion, 0.1 µg/ml antibody
T1 construct: cDNA covered aa 1-63; Expressed in COS-7 cells; also called WT; EpCAM EGF-1 fusion protein WT
Description: (§1) A direct ELISA was used for testing the reactivity of anti-EpCAM antibodies toward variant EpCAM mutants. Briefly, purified EpCAM EGF-1 fusion proteins (WT, Q24A, E25K, E26D, A35T, N37R, F39A, V40E, N41A, N42E, N43A, R44G, Q45A, Q47A or T49A) and irrelevant control (CEA-Cr1) were pre-diluted to 0.5 μg/ml in coating buffer (8.4 g NaHCO₃, 3.4 g Na₂CO₃ in 1 L H₂O, pH 9.5) and aliquoted (100 μl/well) into 96-well plates. […] Plates were then washed 3 times with PBST followed by the addition of the enzyme substrate TMB (BD Biosciences, Cat. No. 555214). […] The optical densities at 450 nm wavelength were measured on an ELISA plate reader.

EGFI-Cr1 N43A = biological target: T2, EGFI-Cr1 N43A (human, UniProt P16422 24-63); experiment: as above
T2 construct: not shown: the constant region of human immunoglobulin gamma 1 heavy chain (Cr1) fused at the C-terminus
T2 chain: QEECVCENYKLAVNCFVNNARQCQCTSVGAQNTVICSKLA
Description: as §1

EGFI-Cr1 Q24A = biological target: T3, EGFI-Cr1 Q24A (human, UniProt P16422 25-63); experiment: as above
T3 construct: not shown: The fused constant region of human immunoglobulin gamma 1 heavy chain (Cr1)
T3 chain: T2 chain with Q1A, A20N
Description: as §1

EGFI-Cr1 Q47A = biological target: T4, EGFI-Cr1 Q47A (human, UniProt P16422 24-63); experiment: as above
T4 construct: not shown: the constant region of human immunoglobulin gamma 1 heavy chain (Cr1) fused at the C-terminus
T4 chain: T2 chain with A20N, Q24A
Description: as §1

EGFI-Cr1 E26D = biological target: T5, EGFI-Cr1 E26D (human, UniProt P16422 24-63); experiment: as above
T5 construct: not shown: The fused constant region of human immunoglobulin gamma 1 heavy chain (Cr1)
T5 chain: T2 chain with E3D, A20N
Description: as §1

EGFI-Cr1 A35T = biological target: T6, EGFI-Cr1 A35T (human, UniProt P16422 24-63); experiment: as above
T6 construct: not shown: The fused constant region of human immunoglobulin gamma 1 heavy chain (Cr1)
T6 chain: T2 chain with A12T, A20N
Description: as §1

EGFI-Cr1 Q45A = biological target: T7, EGFI-Cr1 Q45A (human, UniProt P16422 24-63); experiment: as above
T7 construct: not shown: the constant region of human immunoglobulin gamma 1 heavy chain (Cr1) fused at the C-terminus
T7 chain: T2 chain with A20N, Q22A
Description: as §1

EGFI-Cr1 V40E = biological target: T8, EGFI-Cr1 V40E (human); experiment: as above
T8 construct: not shown: The fused constant region of human immunoglobulin gamma 1 heavy chain (Cr1)
T8 chain: T2 chain with V17E, A20N
Description: as §1

EGFI-Cr1 N37R = biological target: T9, EGFI-Cr1 N37R (human); experiment: as above
T9 construct: not shown: The fused constant region of human immunoglobulin gamma 1 heavy chain (Cr1)
T9 chain: T2 chain with N14R, A20N
Description: as §1

EGFI-Cr1 N41A = biological target: T10, EGFI-Cr1 N41A (human, UniProt P16422 24-63); experiment: as above
T10 construct: not shown: The fused constant region of human immunoglobulin gamma 1 heavy chain (Cr1)
T10 chain: T2 chain with N18A, A20N
Description: as §1

EGFI-Cr1 E25K = biological target: T11, EGFI-Cr1 E25K (human, UniProt P16422 24-63); experiment: as above
T11 construct: not shown: The fused constant region of human immunoglobulin gamma 1 heavy chain (Cr1)
T11 chain: T2 chain with E2K, A20N
Description: as §1

EGFI-Cr1 N42E = biological target: T12, EGFI-Cr1 N42E (human, UniProt P16422 24-63); experiment: as above
T12 construct: not shown: the constant region of human immunoglobulin gamma 1 heavy chain (Cr1) fused at the C-terminus
T12 chain: T2 chain with N19E, A20N
Description: as §1

EGFI-Cr1 T49A = biological target: T13, EGFI-Cr1 T49A (human, UniProt P16422 24-63); experiment: as above
T13 construct: not shown: the constant region of human immunoglobulin gamma 1 heavy chain (Cr1) fused at the C-terminus
T13 chain: T2 chain with A20N, T26A
Description: as §1

EGFI-Cr1 F39A = biological target: T14, EGFI-Cr1 F39A (human, UniProt P16422 24-63); experiment: as above
T14 construct: not shown: The fused constant region of human immunoglobulin gamma 1 heavy chain (Cr1)
T14 chain: T2 chain with F16A, A20N
Description: as §1

EGFI-Cr1 R44G = biological target: T15, EGFI-Cr1 R44G (human, UniProt P16422 24-63); experiment: as above
T15 construct: not shown: the constant region of human immunoglobulin gamma 1 heavy chain (Cr1) fused at the C-terminus
T15 chain: T2 chain with A20N, R21G
Description: as §1

Molecule: O=C1[O][Pt]2([NH][C@@H]3CCCC[C@H]3[NH]2)[O]C1=O [Oxaliplatin, reference compound]
- % of Annexin V + PI staining (untreated background subtracted) ([1]; oxaliplatin 0.01 μg/ml): 1%
- % of Annexin V + PI staining (untreated background subtracted) ([1]; oxaliplatin 0.1 μg/ml): 1%
- % of Annexin V + PI staining (untreated background subtracted) ([1]; oxaliplatin 1 μg/ml): 2%

- relative binding activity (% of WT) [2]: 100%
- relative binding activity (% of WT) (EGFI-Cr1 N43A): 96%
- relative binding activity (% of WT) (EGFI-Cr1 Q24A): 44%
- relative binding activity (% of WT) (EGFI-Cr1 Q47A): 49%
- relative binding activity (% of WT) (EGFI-Cr1 E26D): 1%
- relative binding activity (% of WT) (EGFI-Cr1 A35T): 89%
- relative binding activity (% of WT) (EGFI-Cr1 Q45A): 80%
- relative binding activity (% of WT) (EGFI-Cr1 V40E): 71%
- relative binding activity (% of WT) (EGFI-Cr1 N37R): 1%
- relative binding activity (% of WT) (EGFI-Cr1 N41A): 23%
- relative binding activity (% of WT) (EGFI-Cr1 E25K): 3%
- relative binding activity (% of WT) (EGFI-Cr1 N42E): 93%
- relative binding activity (% of WT) (EGFI-Cr1 T49A): 17%
- relative binding activity (% of WT) (EGFI-Cr1 F39A): 78%
- relative binding activity (% of WT) (EGFI-Cr1 R44G): 95%
B1: murine monoclonal antibody 1G10 (antibody, mouse IgG1, V domains shown)
VH: QIQLVQSGPELKKPGETVKISCKASGYTFTNYGMNWVKQAPGKGFKWMGWINTYTGEPTYADDFKGRFAFSLETSASTAYLQINNLQNEDMATYFCARWGYDFDYWGQGTTLTVSS
VL: QIVLTQSPAIMSSSPGEKVTMTCSASSSISYMNWYQQKPGTSPKRWIYDTSKLASGVPARFSGSGSGTSYSLTISSMEAEDAATYYCHQRSSYPYTFGGGTKLEIKR
notes: Mouse IgG1, kappa, from hybridoma; also called m290-1G10

- relative binding activity (% of WT) [2]: 100%
- relative binding activity (% of WT) (EGFI-Cr1 N43A): 100%
- relative binding activity (% of WT) (EGFI-Cr1 Q24A): 93%
- relative binding activity (% of WT) (EGFI-Cr1 Q47A): 92%
- relative binding activity (% of WT) (EGFI-Cr1 E26D): 98%
- relative binding activity (% of WT) (EGFI-Cr1 A35T): 93%
- relative binding activity (% of WT) (EGFI-Cr1 Q45A): 84%
- relative binding activity (% of WT) (EGFI-Cr1 V40E): 1%
- relative binding activity (% of WT) (EGFI-Cr1 N37R): 97%
- relative binding activity (% of WT) (EGFI-Cr1 N41A): 63%
- relative binding activity (% of WT) (EGFI-Cr1 E25K): 10%
- relative binding activity (% of WT) (EGFI-Cr1 N42E): 95%
- relative binding activity (% of WT) (EGFI-Cr1 T49A): 94%
- relative binding activity (% of WT) (EGFI-Cr1 F39A): 81%
- relative binding activity (% of WT) (EGFI-Cr1 R44G): 1%
B2: murine monoclonal antibody 1F10 (antibody, mouse IgG1, V domains shown)
VH: EVKLLESGGGLVQPGGSLKLSCAASGFDFSRYWMSWVRQAPGKGLEWIGEINPDSSTMNYTPSLKDKFIISRDNAKNTLYLQMSKVRSEDTALYYCARGAYAMDYWGQGTSVTVSS
VL: QAVVTQESALTTSPGETVTLTCRSSTGAVTTSNNANWVQEKPDHLFTGLIGATNNRAPGVPARFSGSLIGDKAALTITGAQTEDEAIYFCALWYINHWVFGGGTKLTVLG
notes: Mouse IgG1, lambda 1, from hybridoma; also called m338-1F10.3
